# Paper PMC3392108 (Human Molecular Genetics, 2012)
# Where no end group is shown, it is not given here.
# How the values were obtained:
# Assay in all cases: fluorescence polarisation
# [1] = biological target: human mtHsp70 R126W PD variant (human, UniProt P38646 47-679, R126W)
# [2] = biological target: human mtHsp70 P509S PD variant (human, UniProt P38646 47-679, P509S)
# [3] = biological target: human mitochondrial Hsp70 (mtHsp70), wild-type (human, UniProt P38646 47-679)
# Sequence of human mitochondrial Hsp70 (mtHsp70), wild-type (P38646 47-679): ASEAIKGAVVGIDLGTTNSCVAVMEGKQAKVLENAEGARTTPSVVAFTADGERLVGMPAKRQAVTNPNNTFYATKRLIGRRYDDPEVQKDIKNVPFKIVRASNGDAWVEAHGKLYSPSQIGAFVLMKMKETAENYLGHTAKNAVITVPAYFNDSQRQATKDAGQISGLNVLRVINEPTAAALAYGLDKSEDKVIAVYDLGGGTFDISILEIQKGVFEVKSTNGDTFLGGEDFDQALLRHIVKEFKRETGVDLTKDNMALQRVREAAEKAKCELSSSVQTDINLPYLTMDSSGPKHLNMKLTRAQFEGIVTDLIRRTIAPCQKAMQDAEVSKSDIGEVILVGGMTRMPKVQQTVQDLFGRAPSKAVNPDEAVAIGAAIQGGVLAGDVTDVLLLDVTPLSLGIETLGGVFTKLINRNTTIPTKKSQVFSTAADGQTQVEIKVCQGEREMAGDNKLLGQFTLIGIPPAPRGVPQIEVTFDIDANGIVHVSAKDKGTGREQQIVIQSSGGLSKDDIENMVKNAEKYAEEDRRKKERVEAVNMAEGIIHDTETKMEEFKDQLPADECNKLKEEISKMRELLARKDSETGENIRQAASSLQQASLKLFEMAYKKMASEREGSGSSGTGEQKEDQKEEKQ
# Sequence of human mtHsp70 R126W PD variant (P38646 47-679 R126W): as the sequence (P38646 47-679) above, with R80W counted along it
# Sequence of human mtHsp70 P509S PD variant (P38646 47-679 P509S): as the sequence (P38646 47-679) above, with P463S counted along it
binder,measurement,setting,value
"ALLLSAPRR (also: fluorescein label, position not given here) [fluorescein-labeled P5 peptide (F-P5)]",Kd,[1],13.6 ± 2.7 µM
same,Kd,[2],15.7 ± 1.9 µM
same,Kd,[3],15.6 ± 1.4 µM
